{"source": "paper PMC12520519", "about": "(2025)", "binders": {"B1": {"name": "Delta-6 scFv (scFv, V domains shown)", "VH": "EVQLLESGGGLVQPGGTLRLSCAASGFIVSSNYMSWVRQAPGKGLEWVSLVYPGGSTYYADSVKGRFTVSRDNSKNTLYLQMNSLRAEDMAVYYCARDLPSGVDAVDAFDIWGQGTMVTVSS", "VL": "DIRVTQSPSSLSASVGDRVSITCRASQIISGYLNWYQQKPGSAPQLLIYASSSLQSGVPPRFSGSRSGTEFTLTISSLQPEDFATYYCQQTYSIPFTFGPGTKVDIK"}}, "target": "receptor binding domain (RBD) of the SARS-CoV-2 spike protein, WT (SARS-CoV-2, UniProt P0DTC2)", "assay": "FACS", "data": [{"binder": "B1", "values": [{"measurement": "Kd", "value": 6.3, "unit": "nM"}]}]}
